According to patent US20070092942A1 (published 2007):
Numbering of substitutions follows the chain as printed. In names and notes the source's numbering stands.

B1: EBV205 (enzyme)
chain: MSNGDWGQSQRTRGTGPVRGIRTMDVNAPGGGSGGSALRILGTASCNQAHCKFGRFAGIQCVSNCVLYLVKSFLAGRPLTSRPELDEVLDEGARLDALMRQSGILKGHEMAQLTDVPSSVVLRGGGRVHIYRSAEIFGLVLFPAQIANSAVVQSLAEVLHGSYNGVAQFILYICDIYAGAIIIETDGSFYLFDPHCQKDAAPGTP
notes: range 1-205; not shown: N-terminal His-tag from pET28
B2: EBV205 C61A (enzyme)
chain: B1 chain with C61A
notes: range 1-205; also called EBV205 active site mutant (C61A); not shown: N-terminal His-tag from pET28

Legend:
[1] = target: T1, HA-tagged Ub-vinylmethyl ester (UniProt P0CG47 1-75); assay: 1 uM enzyme with 2 uM HAUbVME, SDS-PAGE silver stain and anti-HA immunoblot
T1 construct: also called HAUbVME; HA-UbVME

[2] = target: T1, HA-tagged Ub-vinylmethyl ester; assay: HAUbVME labelling, SDS-PAGE and anti-HA immunoblot

Row | Binder | binding result [1] | binding result [2]
1 | B1 | binds | 
2 | B2 |  | no binding (tested: 2 uM HAUbVME, 1 uM enzyme)
